Assay [1] has as its target T1, B-cat-Halo (UniProt P35222 1-781, HaloTag NanoBRET 618 Ligand bound to the HaloTag in the assay).
T1 sequence (looked up): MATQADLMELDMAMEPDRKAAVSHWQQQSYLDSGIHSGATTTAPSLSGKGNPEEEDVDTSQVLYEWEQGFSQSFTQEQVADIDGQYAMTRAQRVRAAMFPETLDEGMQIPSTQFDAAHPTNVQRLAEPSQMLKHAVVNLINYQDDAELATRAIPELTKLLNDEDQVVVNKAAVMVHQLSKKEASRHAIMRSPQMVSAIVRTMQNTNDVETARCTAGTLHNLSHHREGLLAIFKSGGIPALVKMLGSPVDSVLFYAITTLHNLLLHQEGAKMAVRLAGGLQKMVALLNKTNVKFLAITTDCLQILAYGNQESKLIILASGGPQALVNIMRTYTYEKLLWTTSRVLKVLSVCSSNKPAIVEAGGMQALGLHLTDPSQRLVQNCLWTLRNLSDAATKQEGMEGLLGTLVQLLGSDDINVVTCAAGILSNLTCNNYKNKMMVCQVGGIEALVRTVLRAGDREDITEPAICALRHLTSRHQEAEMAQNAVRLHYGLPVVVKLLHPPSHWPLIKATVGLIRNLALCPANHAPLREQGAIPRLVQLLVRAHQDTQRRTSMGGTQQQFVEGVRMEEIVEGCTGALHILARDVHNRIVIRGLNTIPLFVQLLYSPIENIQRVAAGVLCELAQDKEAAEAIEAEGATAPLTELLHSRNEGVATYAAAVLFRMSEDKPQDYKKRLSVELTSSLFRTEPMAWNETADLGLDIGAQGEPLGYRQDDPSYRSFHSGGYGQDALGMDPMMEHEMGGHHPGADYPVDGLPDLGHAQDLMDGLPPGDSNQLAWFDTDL
The assay can be described thus: cell-based or functional assay.

Assay [2] addresses T2, B-cat-Halo (UniProt P35222 1-781).
T2 sequence (looked up): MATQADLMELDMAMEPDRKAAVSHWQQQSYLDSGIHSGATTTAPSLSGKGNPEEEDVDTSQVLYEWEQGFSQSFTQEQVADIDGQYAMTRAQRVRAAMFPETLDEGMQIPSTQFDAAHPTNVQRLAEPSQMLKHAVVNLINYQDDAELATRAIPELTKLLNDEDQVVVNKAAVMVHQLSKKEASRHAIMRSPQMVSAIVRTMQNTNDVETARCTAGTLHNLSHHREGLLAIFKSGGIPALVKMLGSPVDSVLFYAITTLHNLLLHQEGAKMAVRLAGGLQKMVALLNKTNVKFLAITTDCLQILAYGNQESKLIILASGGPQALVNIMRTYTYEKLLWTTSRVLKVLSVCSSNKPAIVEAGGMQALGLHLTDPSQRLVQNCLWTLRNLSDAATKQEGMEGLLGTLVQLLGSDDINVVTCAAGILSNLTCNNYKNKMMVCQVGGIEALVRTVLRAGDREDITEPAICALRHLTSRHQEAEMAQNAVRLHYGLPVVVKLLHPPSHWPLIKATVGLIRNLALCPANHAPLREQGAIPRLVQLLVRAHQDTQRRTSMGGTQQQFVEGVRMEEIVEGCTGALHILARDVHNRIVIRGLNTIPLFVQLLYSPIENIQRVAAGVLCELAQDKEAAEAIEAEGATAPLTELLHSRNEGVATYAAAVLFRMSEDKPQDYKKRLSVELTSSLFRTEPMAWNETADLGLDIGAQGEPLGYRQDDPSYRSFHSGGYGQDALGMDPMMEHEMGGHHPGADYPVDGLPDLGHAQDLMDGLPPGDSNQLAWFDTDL
The assay can be described thus: cell-based or functional assay.

Starred links: 1 amine or outer side, 2 acyl side, 3 side chain; linkers in the order of their positions; H or OH if unused. Positions of bridges follow the written chain, without caps; N, C: chain ends. Non-standard residues stand in square brackets, D forms with d. Primed or numbered codes have the meaning given here. *: point of attachment. PyrS2″ = (S)-3-amino-1-((pent-4-en-1-yloxy)carbonyl)pyrrolidine-3-carboxylic acid (stapling residue), C=CCCCOC(=O)N1CC[C@@](N[*:1])(C(=O)[*:2])C1; B5(18) = 2,2-bis(4-pentenyl)glycine (2-amino-2-(pent-4-en-1-yl)hept-6-enoic acid), stitching residue, C=CCCCC(CCCC=C)(N[*:1])C(=O)[*:2]; TfeGA = (S)-2-amino-3-((carboxymethyl)(2,2,2-trifluoroethyl)amino)propanoic acid, O=C([C@H](CN(CC(=O)[*:3])CC(F)(F)F)N[*:1])[*:2]; PyrS2 = (S)-3-amino-1-((pent-4-en-1-yloxy)carbonyl)pyrrolidine-3-carboxylic acid, C=CCCCOC(=O)N1CC[C@@](N[*:1])(C(=O)[*:2])C1; B5(3) = 2,2-bis(4-pentenyl)glycine (stitching residue), C=CCCCC(CCCC=C)(N[*:1])C(=O)[*:2]; Me3AdamantC = 3,5,7-trimethyladamantane-1-carbonyl, CC12CC3(C)CC(C)(C1)CC(C(=O)*)(C2)C3; B5(28) = 2,2-bis(4-pentenyl)glycine, C=CCCCC(CCCC=C)(N[*:1])C(=O)[*:2]; 2F3MeF = Cc1cccc(C[C@H](N[*:1])C(=O)[*:2])c1F; Phe(2-CF3) = N[C@@H](Cc1ccccc1C(F)(F)F)C(=O)O; Phe(3-Cl) = N[C@@H](Cc1cccc(Cl)c1)C(=O)O; Phe(2-Br) = N[C@@H](Cc1ccccc1Br)C(=O)O; Phe(2-Cl) = N[C@@H](Cc1ccccc1Cl)C(=O)O; Bta = N[C@@H](Cc1csc2ccccc12)C(=O)O; αAllylPro = C=CC[C@@]1(C(=O)O)CCCN1; tBuAla = CC(C)(C)C[C@H](N)C(=O)O; 3Thi = N[C@@H](Cc1ccsc1)C(=O)O; S8 = C=CCCCCCC[C@](C)(N)C(=O)O; AdamantC = not defined here; PyrS2(4) = not defined here; TfeGA″ = not defined here; Octanoyl = CCCCCCCC(=O)*; Butyryl = CCCC(=O)*

B1: I-927 (peptide)
peptide: Ac-[αAllylPro]D[tBuAla][B5(3)]D[TfeGA″]AAFN[PyrS2(4)][2F3MeF][Bta]Q-NH2
modifications: staple 1-4, 4-11; reading uncertain; also: staple stereoisomer, earlier-eluting HPLC peak
Consider B1, for which the “NanoBRET Abs IC50” value with B-cat-Halo [1] was 8.2 µM.
For the molecule Ac-[αAllylPro]D[tBuAla][B5(18)]D[TfeGA]IAFN[PyrS2″][Phe(2-Cl)][Bta]Q-NH2 (staple 1-4, 4-11) [I-1010], the “NanoBRET Abs IC50” value with B-cat-Halo [2] stood at 13.3 µM.
Regarding Ac-[αAllylPro]D[tBuAla][B5(18)]DDAAFT[PyrS2″][Phe(2-Cl)][Bta]Q-NH2 (staple 1-4, 4-11) [I-1013], the “NanoBRET Abs IC50” value with B-cat-Halo [2] turned out to be 12.4 µM.
Consider Ac-[αAllylPro]D[tBuAla][B5(3)]D[TfeGA]AAFN[PyrS2″][Phe(2-Br)][Bta]Q-NH2 (staple 1-4, 4-11) [I-924], for which, in the assay with B-cat-Halo [1], the “NanoBRET Abs IC50” value is 3.3 µM.
For the molecule Ac-[αAllylPro]D[tBuAla][B5(18)]D[TfeGA]ALFN[PyrS2″][Phe(2-Cl)][Bta]Q-NH2 (staple 1-4, 4-11) [I-1002], the “NanoBRET Abs IC50” value with B-cat-Halo [2] was 29.8 µM.
With Ac-[αAllylPro]D[tBuAla][B5(3)]D[TfeGA]AAFN[PyrS2″][Phe(3-Cl)][Bta]Q-NH2 (staple 1-4, 4-11; not fully specified) [I-925], the “NanoBRET Abs IC50” value in the assay with B-cat-Halo [1] was 20 µM.
In the case of Ac-[αAllylPro]D[tBuAla][B5(28)]D[TfeGA″]AAFT[PyrS2][Phe(2-Cl)][Bta]Q-NH2 (staple 1-4, 4-11; reading uncertain) [I-922], the “NanoBRET Abs IC50” value with B-cat-Halo [1] came to 2.7 µM.
In the case of Ac-[αAllylPro]D[tBuAla][B5(18)]D[TfeGA]LAFN[PyrS2″][Phe(2-Cl)][Bta]Q-NH2 (staple 1-4, 4-11) [I-1007], in the assay with B-cat-Halo [2], the “NanoBRET Abs IC50” value was 24.9 µM.
In the case of Ac-[αAllylPro]D[tBuAla][B5(18)]D[TfeGA]AKFN[PyrS2″][Phe(2-Cl)][Bta]Q-NH2 (staple 1-4, 4-11) [I-1006], the “NanoBRET Abs IC50” value with B-cat-Halo [2] was greater than 20 µM.
Turning to Ac-[αAllylPro]D[tBuAla][B5(3)]D[TfeGA]AAFN[PyrS2″][Phe(3-Cl)][Bta]Q-NH2 (staple 1-4, 4-11; not fully specified) [I-926], in the assay with B-cat-Halo [1], the “NanoBRET Abs IC50” value is 29.9 µM.
Consider Ac-[αAllylPro]D[tBuAla][B5(18)]D[TfeGA]ASFN[PyrS2″][Phe(2-Cl)][Bta]Q-NH2 (staple 1-4, 4-11) [I-1004], for which the “NanoBRET Abs IC50” value with B-cat-Halo [2] was 10.6 µM.
For the molecule Ac-[αAllylPro]D[tBuAla][B5(3)]D[TfeGA]AAFN[PyrS2″][Phe(2-CF3)][Bta]Q-NH2 (staple 1-4, 4-11; not fully specified) [I-928], in the assay with B-cat-Halo [1], the “NanoBRET Abs IC50” value is 6.1 µM.

B2: I-919 (peptide)
peptide: Ac-[αAllylPro]D[tBuAla][B5(3)]DDAAFN[PyrS2(4)][3Thi][Bta]QK(AdamantC)-NH2
modifications: staple 1-4, 4-11; reading uncertain; also: printed as Ac-PL3-Asp-Npg-B5-Asp-Asp-Ala-Ala-Phe-Asn-PyrS2-3Thi-BztA-Gln-[AdamantC]Lys-NH2
As for B2, the “NanoBRET Abs IC50” value with B-cat-Halo [1] was found to be 15.2 µM.

B3: I-911 (peptide)
peptide: Ac-[αAllylPro]D[tBuAla][B5(3)]DDAAFN[PyrS2″][3Thi][Bta]QK(mPEG2)-NH2
modifications: staple 1-4, 4-11; not fully specified; printed as Ac-PL3-Asp-Npg-B5-Asp-Asp-Ala-Ala-Phe-Asn-PyrS2-3Thi-BztA-Gln-[mPEG2]Lys-NH2
In the case of B3, in the assay with B-cat-Halo [1], the “NanoBRET Abs IC50” value amounted to 22.9 µM.

B4: I-915 (peptide)
peptide: Ac-[αAllylPro]D[tBuAla][B5(3)]DDAAFN[PyrS2(4)][3Thi][Bta]QK(2Napc)-NH2
modifications: staple 1-4, 4-11; reading uncertain; also: printed as Ac-PL3-Asp-Npg-B5-Asp-Asp-Ala-Ala-Phe-Asn-PyrS2-3Thi-BztA-Gln-[2Napc]Lys-NH2
Take B4: in the assay with B-cat-Halo [1], the “NanoBRET Abs IC50” value amounted to 15.5 µM.

B5: I-918 (peptide)
peptide: Ac-[αAllylPro]D[tBuAla][B5(3)]DDAAFN[PyrS2″][3Thi][Bta]QK(Octanoyl)-NH2
modifications: staple 1-4, 4-11; not fully specified; printed as Ac-PL3-Asp-Npg-B5-Asp-Asp-Ala-Ala-Phe-Asn-PyrS2-3Thi-BztA-Gln-[Oct]Lys-NH2
Take B5: the “NanoBRET Abs IC50” value with B-cat-Halo [1] stood at 11.1 µM.
The same measure, in the same setting: the result for Ac-[αAllylPro]D[tBuAla][B5(3)]DDAAFN[PyrS2″][3Thi][Bta]QK(Butyryl)-NH2 (staple 1-4, 4-11) [I-917] reads 19.7 µM.
Still for that read-out and setting: the result for Ac-[αAllylPro]D[tBuAla][B5(3)]DDAAFN[PyrS2″][3Thi][Bta]QK(Me3AdamantC)-NH2 (staple 1-4, 4-11) [I-920] reads 17.7 µM.
Ac-[αAllylPro]D[tBuAla][B5(18)]D[TfeGA]KAFN[PyrS2″][Phe(2-Cl)][Bta]Q-NH2 (staple 1-4, 4-11) [I-1011]: in the assay with B-cat-Halo [2], the “NanoBRET Abs IC50” value stood at 20.8 µM.
With Ac-[αAllylPro]D[tBuAla][B5(3)]D[TfeGA]AAFF[PyrS2″][Phe(2-Cl)][Bta]Q-NH2 (staple 1-4, 4-11) [I-923], the “NanoBRET Abs IC50” value with B-cat-Halo [1] amounted to 6 µM.
Ac-[αAllylPro]D[tBuAla][B5(18)]D[TfeGA″]SAFN[PyrS2″][Phe(2-Cl)][Bta]Q-NH2 (staple 1-4, 4-11; reading uncertain) [I-1009]: the “NanoBRET Abs IC50” value with B-cat-Halo [2] amounted to 33.3 µM.
Turning to Ac-[αAllylPro]D[tBuAla][B5(3)]D[TfeGA]AAFN[S8][Phe(2-Cl)][Bta]Q-NH2 (staple 1-4, 4-11) [I-929], in the assay with B-cat-Halo [1], the “NanoBRET Abs IC50” value was found to be 10.3 µM.

B6: I-916 (peptide)
peptide: Ac-[αAllylPro]D[tBuAla][B5(3)]DDAAFN[PyrS2(4)][3Thi][Bta]QK(1Napc)-NH2
modifications: staple 1-4, 4-11; reading uncertain; also: printed as Ac-PL3-Asp-Npg-B5-Asp-Asp-Ala-Ala-Phe-Asn-PyrS2-3Thi-BztA-Gln-[1Napc]Lys-NH2
For B6, in the assay with B-cat-Halo [1], the “NanoBRET Abs IC50” value stood at 13.6 µM.

The values above are taken from patent publication US20240116985A1 (published 2024).
